Measured values as given in patent publication US20090311714.

T1: GlcNAc-MurNAc-L-Ala-D-iGln-L-(N-epsilon-D-iAsn)Lys-D-Ala
T1 chain: AQKA

T2: GlcNAc-MurNAc-L-Ala-D-iGln-L-Lys-D-Ala
T2 chain: AQKA

T3: GlcNAc-MurNAc-L-Ala-D-iGlu-L-(N-epsilon-D-iAsn)Lys-D-Ala (not fully specified)
T3 chain: AEKA

T4: N-alpha,N-epsilon-diacetyl-L-lysyl-D-alanine
T4 chain: KA

T5: UDP-MurNAc-L-Ala-D-iGlu-L-Lys-D-Ala (not fully specified)
T5 chain: AEKA

T6: L-Ala-D-iGlu-L-Lys-D-Ala (not fully specified)
T6 chain: AEKA


Key:
[1] = target: UDP-MurNAc-L-Ala-D-iGlu-L-Lys-D-Ala-D-Ala
[2] = target: T1, GlcNAc-MurNAc-L-Ala-D-iGln-L-(N-epsilon- …)
[3] = target: L-Ala-D-iGlu-L-Lys-D-Ala-D-Ala
[4] = target: T2, GlcNAc-MurNAc-L-Ala-D-iGln-L-Lys-D-Ala
[5] = target: T3, GlcNAc-MurNAc-L-Ala-D-iGlu-L-(N-epsilon- …)
[6] = target: T4, N-alpha,N-epsilon-diacetyl-L-lysyl-D-ala …
[7] = target: T5, UDP-MurNAc-L-Ala-D-iGlu-L-Lys-D-Ala
[8] = target: GlcNAc-MurNAc-L-Ala-D-iGlu-L-(N-epsilon-D-iAsn)Lys-D-Ala-D-Ala
[9] = target: T6, L-Ala-D-iGlu-L-Lys-D-Ala

Row | Protein | formation of [14C]UDP-MurNac-hexapeptide in the D-aspartate ligase assay [1] | formation of dimers, by mass spectrometry (in vitro L,D-transpeptidation) [2] | formation of radioactive peptides in the exchange assay with D-[14C]Ala as the acceptor [1] | formation of radioactive peptides in the exchange assay with D-[14C]Ala as the acceptor [3] | formation of dimers, by mass spectrometry (in vitro L,D-transpeptidation) [4] | formation of radioactive peptides in the exchange assay with D-[14C]Ala as the acceptor [5] | formation of radioactive peptides in the exchange assay with D-[14C]Ala as the acceptor [6] | formation of radioactive peptides in the exchange assay with D-[14C]Ala as the acceptor [7] | formation of radioactive peptides in the exchange assay with D-[14C]Ala as the acceptor [8] | formation of radioactive peptides in the exchange assay with D-[14C]Ala as the acceptor [9]
1 | D-aspartate ligase of Enterococcus faecium (Aslfm) (protein) MMNSIENEEFIPILLGSDMNVYGMARSFNEAYGKICQAYASDQLAPTRYSKIVNVEVIPGFDKDPVFIETMLRLAKERYSDKSKKYLLIACGDGYAELISQHKQELSEYFICPYIDYSLFERLINKVSFYEVCEEYDLPYPKTLIVREEMLVNGHLEQELPFEFPVALKPANSVEYLSVQFEGRKKAFILETREEFDLILGRIYEAGYKSEMIVQDFIPGDDSNMRVLNAYVDEDHQVRMMCLGHPLLEDPTPASIGNYVVIMPDYNEKIYQTIKAFLEKIEYTGFANFDMKYDPRDGEYKLFEINLRQGRSSFFVTLNGLNLARFVTEDRVFNKPFVETTYGTNQSDKARLWMGVPKKIFLEYARENEDKKLAEQMIKENRYGTTVFYEKDRSIKRWLLMKYMFHNYIPRFKKYFHVKEG | Addition of 2 µg of purified protein in the D-aspartate ligase assay resulted in the formation of a radioactive product corresponding to the labeled hexapeptide | – | – | – | – | – | – | – | – | –
2 | L,D-transpeptidase of Enterococcus faecium M512 (Ldtfm), soluble recombinant fragment, residues 119 to 466, with C-terminal polyhistidine tag (protein) MAEKQEIDPVSQNHQKLDTTVQTLTTKLTDLNKDRTPTTDATIEKAGDSFVIKPEVNGNTIDVDAAVKQLKSAVNSGKDTIELTEFKEKPKVTSEDSSLKEQLASMNAIANVKATYSINGETFQIPSSDIMSWLTYNDGKVDLDTEQVRQYVTDLGTKYNTSTNDTKFKSTKRGEVTVPVGTYSWTIQTDSETEALKKAILAGQDFTRSPIVQGGTTADHPLIEDTYIEVDLENQHMWYYKDGKVALETDIVSGKPTTPTPAGVFYVWNKEEDATLKGTNDDGTPYESPVNYWMPIDWTGVGIHDSDWQPEYGGDLWKTRGSHGCINTPPSVMKELFGMVEKGTPVLVFGSHHHHHH | – | formation of dimers with two types of donors (tetrapeptide and tetrapeptide-iAsn) and two types of acceptors (tetrapeptide-iAsn and tripeptide-iAsn) in the four possible combinations | Formation of radioactive peptides was not detected | Formation of radioactive peptides was not detected | formation of dimers with two types of donors (tetrapeptide and tetrapeptide-iAsn) ...; The muropeptide containing an unsubstituted tetrapeptide stem was not used as an acceptor | Formation of radioactive peptides was observed ... also with the complete disaccharide-tetrapeptide(iAsn) peptidoglycan unit | Formation of radioactive peptides was observed not only with Ac2-L-Lys-D-Ala | Formation of radioactive peptides was observed ... with other donors containing a tetrapeptide ending in D-Ala | Formation of radioactive peptides was not detected | Formation of radioactive peptides was observed ... with other donors containing a tetrapeptide ending in D-Ala
